Experimental data as given in publication PMC9348789 (2022).

B1: CXCL14 (ligand)
chain: SKCKCSRKGPKIRYSDVKKLEMKPKYPHCEEKMVIITTKSVSRYRGQEHCLHPKLQSTKRFIKWYNAWNEKRRVYEE
B2: CXCL4 (ligand)
chain: EAEEDGDLQCLCVKTTSQVRPRHITSLEVIKAGPHCPTAQLIATLKNGRKICLDLQAPLYKKIIKKLLES
B3: CXCL11 (ligand)
chain: FPMFKRGRCLCIGPGVKAVKVADIEKASIMYPSNNCDKIEVIITLKENKGQRCLNPKSKQARLIIKKVERKNF
B4: CXCL9 (ligand)
chain: TPVVRKGRCSCISTNQGTIHLQSLKDLKQFAPSPSCEKIEIIATLKNGVQTCLNPDSADVKELIKKWEKQVSQKKKQKNGKKHQKKKVLKVRKSQRSRQKKTT
B5: CCL11 (ligand)
chain: not shown
B6: CCL28 (ligand)
chain: SEAILPIASSCCTEVSHHISRRLLERVNMCRIQRADGDCDLAAVILHVKRRRICVSPHNHTVKQWMKVQAAKKNGKGNVCHRKKHHGKRNSNRAHQGKHETYGHKTPY
B7: CCL26 (ligand)
chain: TRGSDISKTCCFQYSHKPLPWTWVRSYEFTSNSCSQRAVIFTTKRGKKVCTHPRKKWVQKYISLLKTPKQL
B8: CCL21 (ligand)
chain: SDGGAQDCCLKYSQRKIPAKVVRSYRKQEPSLGCSIPAILFLPRKRSQAELCADPKELWVQQLMQHLDKTPSPQKPAQGCRKDRGASKTGKKGKGSKGCKRTERSQTPKGP
B9: CCL5 (ligand)
chain: SPYSSDTTPCCFAYIARPLPRAHIKEYFYTSGKCSNPAVVFVTRKNRQVCANPEKKWVREYINSLEMS

Experiments:
[1] = molecular target: T1, SARS-CoV-2 nucleocapsid protein (N) (SARS-CoV-2, UniProt P0DTC9 1-419); test: BLI
[2] = molecular target: T1, SARS-CoV-2 nucleocapsid protein (N); test: BLI; remark: listed apart in the source

Row | Binder | Kd [1] | koff [2]
1 | B1 | 45 nM | 0.0019 s⁻¹
2 | B2 | 170 nM | 0.00053 s⁻¹
3 | B3 | 130 nM | 0.0033 s⁻¹
4 | B4 | 12 nM | 0.00085 s⁻¹
5 | B5 | 72 nM | 0.0045 s⁻¹
6 | B6 | 22 nM | 0.00087 s⁻¹
7 | B7 | 26 nM | 0.00093 s⁻¹
8 | B8 | 14 nM | 0.0014 s⁻¹
9 | B9 | 10 nM | 0.00019 s⁻¹
